One block for each molecule: values may come before it.
Key:
[1] = biological target: His-tagged ectodomain of human IL-2Rα (human) (UniProt P01589); experiment: BLI; His-tagged IL-2Rα immobilised by amine coupling on AR2G biosensors; Octet RED96, 25 °C, D-PBS with 0.2% BSA and 0.05% Tween 20; two-fold dilutions (1.5-100 nM) of IL-2 and L72-FSY; dissociation 300 s; global 1:1 fit
IL-2Rα (Homo sapiens) = IL-2Rα (Homo sapiens) (UniProt P01589); conditions: cited from earlier work
[2] = biological target: dimeric IL-2 receptor (Homo sapiens) (UniProt P14784); conditions: cited from earlier work
[3] = biological target: extracellular domain of IL-2Rβ (UniProt P14784); experiment: BLI; biosensors bearing the extracellular domain of IL-2Rβ; samples in a series of 3-fold dilutions
L72-FSY-IL-2 = L72-FSY-IL-2 (human, UniProt P60568 21-153, L72-FSY, fluorosulfate-L-tyrosine (FSY) at 72); experiment: BLI

IL-2Rα (Homo sapiens), sequence (P01589 22-240): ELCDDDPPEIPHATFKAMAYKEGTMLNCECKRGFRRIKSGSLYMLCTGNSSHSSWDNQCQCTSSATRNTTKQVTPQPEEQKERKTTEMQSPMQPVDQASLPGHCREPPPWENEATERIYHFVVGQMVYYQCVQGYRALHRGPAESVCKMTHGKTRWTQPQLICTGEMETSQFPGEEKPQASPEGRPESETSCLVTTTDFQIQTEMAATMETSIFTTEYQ

Kd [1]: 10.3 nM
Molecule: L72-FSY-IL-2 (human IL-2 with fluorosulfate-L-tyrosine at position 72) (from UniProt P60568 21-153) (ligand)

Molecule: IL-2 (from UniProt P60568)
Kd (IL-2Rα (Homo sapiens)): 10 nM
Kd [2]: 1 nM

Kd [3]: 743 nM
Kd [1]: 45.1 nM
Molecule: N-terminally PEGylated L72-FSY-IL-2 (from UniProt P60568 21-153) (ligand)

Kd (L72-FSY-IL-2): 70 nM
B1: extracellular domain of the β subunit of IL-2R (receptor)
chain: AVNGTSQFTCFYNSRANISCVWSQDGALQDTSCQVHAWPDRRRWNQTCELLPVSQASWACNLILGAPDSQKLTTVDIVTLRVLCREGVRWRVMAIQDFKPFENLRLMAPISLQVVHVETHRCNISWEISQASHYFERHLEFEARTLSPGHTWEEAPLLTLKQKQEWICLETLTPDTQYEFQVRVKPLQGEFTTWSPWSQPLAFRTKPAALGKDT
